Measurements reported in patent US20140323392A1 (UNIVERSITY OF UTAH RESEARCH FOUNDATION, published 2014).
Bridges are numbered along the chain shown (N, C = ends). Roman numbers before positions name the chains, in order. [ ]: non-standard residue; d: D form.

B1: C5C(PIE7-GK)2 (peptide)
peptide: Ac-G[dA][dC][dD][dY][dP][dE][dW][dQ][dW][dL][dC][dA][dA]G[dK]-NH2
modifications: disulfide 3-12 (inferred); also: dimer, C- to C-terminal link by PEG5 spacer
B2: N0C(PIE7)2 (peptide)
peptide: Ac-[dK]G[dA][dC][dD][dY][dP][dE][dW][dQ][dW][dL][dC][dA][dA]-NH2
modifications: disulfide 4-13 (inferred); also: dimer linked N- to C-terminal by zero-length spacer
B3: 2K-PIE2 (peptide)
peptide: Ac-[dK][dK]G[dA][dC][dD][dY][dP][dE][dW][dR][dW][dL][dC][dA][dA]-NH2
modifications: disulfide 5-14 (inferred)
B4: N5N(PIE7)2 (peptide)
peptide: Ac-[dK]G[dA][dC][dD][dY][dP][dE][dW][dQ][dW][dL][dC][dA][dA]-NH2
modifications: disulfide 4-13 (inferred); also: dimer, N- to N-terminal link by PEG5 spacer
B5: PEG5-(PIE13)2 (peptide)
peptide: Ac-[dH][dP][dC][dD][dY][dP][dE][dW][dQ][dW][dL][dC]K[dL]G[dK]-NH2
modifications: disulfide 3-12 (inferred); not fully specified (residue 13); also: dimer crosslinked by PEG5 via internal Lys
B6: PIE8 (peptide)
peptide: Ac-[dK]G[dA][dC][dD][dY][dK][dE][dW][dQ][dW][dL][dC][dA][dA]-NH2
modifications: disulfide 4-13 (inferred)
B7: N9N(PIE7)3 (peptide)
peptide: Ac-[dK]G[dA][dC][dD][dY][dP][dE][dW][dQ][dW][dL][dC][dA][dA]-NH2
modifications: disulfide 4-13 (inferred); also: trimer linked by PEG9 spacers
B8: N5C(PIE7)2 (peptide)
peptide: Ac-[dK]G[dA][dC][dD][dY][dP][dE][dW][dQ][dW][dL][dC][dA][dA]-NH2
modifications: disulfide 4-13 (inferred); also: dimer linked N- to C-terminal by PEG5 spacer
B9: N0N(PIE7)2 (peptide)
peptide: Ac-[dK]G[dA][dC][dD][dY][dP][dE][dW][dQ][dW][dL][dC][dA][dA]-NH2
modifications: disulfide 4-13 (inferred); also: dimer, N- to N-terminal link by zero length spacer
B10: PIE7 (peptide)
peptide: Ac-[dK]G[dA][dC][dD][dY][dP][dE][dW][dQ][dW][dL][dC][dA][dA]-NH2
modifications: disulfide 4-13 (inferred)
B11: PIE7-GKK (peptide)
peptide: Ac-G[dA][dC][dD][dY][dP][dE][dW][dQ][dW][dL][dC][dA][dA]G[dK][dK]-NH2
modifications: disulfide 3-12 (inferred)
B12: N9C(PIE7)2 (peptide)
peptide: Ac-[dK]G[dA][dC][dD][dY][dP][dE][dW][dQ][dW][dL][dC][dA][dA]-NH2
modifications: disulfide 4-13 (inferred); also: dimer linked N- to C-terminal by PEG9 spacer
B13: PIE2 (peptide)
peptide: Ac-[dK]G[dA][dC][dD][dY][dP][dE][dW][dR][dW][dL][dC][dA][dA]-NH2
modifications: disulfide 4-13 (inferred)
B14: PIE13 (peptide)
peptide: Ac-[dH][dP][dC][dD][dY][dP][dE][dW][dQ][dW][dL][dC][dK][dL]G[dK]-NH2
modifications: disulfide 3-12 (inferred)
B15: C0C(PIE7-GK)3 (peptide)
peptide 1: Ac-G[dA][dC][dD][dY][dP][dE][dW][dQ][dW][dL][dC][dA][dA]G[dK]-NH2
peptide 2: Ac-G[dA][dC][dD][dY][dP][dE][dW][dQ][dW][dL][dC][dA][dA]G[dK][dK]-NH2
modifications: disulfide I:3-I:12, II:3-II:12 (inferred); also: trimer, C-terminal Lys residues linked by zero length spacers
B16: C9C(PIE7-GK)2 (peptide)
peptide: Ac-G[dA][dC][dD][dY][dP][dE][dW][dQ][dW][dL][dC][dA][dA]G[dK]-NH2
modifications: disulfide 3-12 (inferred); also: dimer, C- to C-terminal link by PEG9 spacer
B17: PIE7-GK long claw (peptide)
peptide: Ac-G[dA][dC][dD][dY][dP][dE][dW][dQ][dW][dL][dC][dA][dA]G[dK]-NH2
modifications: disulfide 3-12 (inferred); also: linked to trifunctional crosslinker LC-TSAT
B18: PIE15 (peptide)
peptide: Ac-[dH][dA][dC][dD][dY][dP][dE][dW][dQ][dW][dL][dC][dE][dL]G[dK]-NH2
modifications: disulfide 3-12 (inferred)
B19: C5C(PIE7-GK)3 (peptide)
peptide 1: Ac-G[dA][dC][dD][dY][dP][dE][dW][dQ][dW][dL][dC][dA][dA]G[dK]-NH2
peptide 2: Ac-G[dA][dC][dD][dY][dP][dE][dW][dQ][dW][dL][dC][dA][dA]G[dK][dK]-NH2
modifications: disulfide I:3-I:12, II:3-II:12 (inferred); also: trimer: C-terminal Lys linked by PEG5 spacers
B20: C5C(PIE12)2 (peptide)
peptide: Ac-[dH][dP][dC][dD][dY][dP][dE][dW][dQ][dW][dL][dC][dE][dL]G[dK]-NH2
modifications: disulfide 3-12 (inferred); also: dimer, C- to C-terminal link by PEG5 spacer
B21: D10-p5 (peptide)
peptide: Ac-[dK][dK]G[dA][dC][dE][dL][dL]G[dW][dE][dW][dA][dW][dL][dC][dA][dA]-NH2
modifications: disulfide 5-16 (inferred)
B22: PIE7-GK-PEG4 (peptide)
peptide: Ac-G[dA][dC][dD][dY][dP][dE][dW][dQ][dW][dL][dC][dA][dA]G[dK]-NH2
modifications: disulfide 3-12 (inferred); also: PEG4 attached at the C-terminus
B23: K-PIE7-GK (peptide)
peptide: Ac-[dK]G[dA][dC][dD][dY][dP][dE][dW][dQ][dW][dL][dC][dA][dA]G[dK]-NH2
modifications: disulfide 4-13 (inferred)
B24: PIE14 (peptide)
peptide: Ac-[dH][dP][dC][dD][dY][dP][dE][dW][dQ][dW][dL][dC][dR][dL]G[dK]-NH2
modifications: disulfide 3-12 (inferred)
B25: PIE7-GK (peptide)
peptide: Ac-G[dA][dC][dD][dY][dP][dE][dW][dQ][dW][dL][dC][dA][dA]G[dK]-NH2
modifications: disulfide 3-12 (inferred)
B26: 2K-PIE1 (peptide)
peptide: Ac-[dK][dK]G[dA][dC][dE][dS][dP][dE][dW][dR][dW][dL][dC][dA][dA]-NH2
modifications: disulfide 5-14 (inferred)
B27: PIE2-AAA (peptide)
peptide: Ac-[dK]G[dA][dC][dD][dY][dP][dE][dW][dR][dW][dL][dC][dA][dA][dA]-NH2
modifications: disulfide 4-13 (inferred)

Tests used:
[1] = target: HIV-1 HXB2 envelope glycoprotein gp41 (N-trimer of the prehairpin intermediate) (HIV-1 strain HXB2, UniProt P04578 512-856); assay: cell-based or functional assay
[2] = target: HIV-1 JRFL envelope glycoprotein gp41 (N-trimer of the prehairpin intermediate) (HIV-1 strain JRFL); assay: cell-based or functional assay

Row | Binder | IC50, HXB2 pseudovirion entry [1] | IC50, JRFL pseudovirion entry [2]
1 | B1 | 0.36 nM | 200 nM
2 | B2 | 0.53 nM | 400 nM
3 | B3 | 2.6 nM | –
4 | B4 | 1.1 nM | 1410 nM
5 | B5 | – | 15 nM
6 | B6 | 1.7 nM | ~110000 nM
7 | B7 | 0.25 nM | 220 nM
8 | B8 | 0.58 nM | 300 nM
9 | B9 | 0.8 nM | 1090 nM
10 | B10 | 620 nM | 24000 nM
11 | B11 | 380 nM | 19100 nM
12 | B12 | 0.33 nM | 310 nM
13 | B13 | – | 66000 nM
14 | B14 | 41 nM | 1470 nM
15 | B15 | 0.12 nM | 16.1 nM
16 | B16 | 0.35 nM | 220 nM
17 | B17 | 0.12 nM | 20.6 nM
18 | B18 | 67 nM | 1450 nM
19 | B19 | 0.13 nM | 6.7 nM
20 | B20 | – | 14 nM
21 | B21 | 9.5 nM | > 25000 nM
22 | B22 | 350 nM | 13100 nM
23 | B23 | – | 14800 nM
24 | B24 | 33 nM | 1050 nM
25 | B25 | 390 nM | 15800 nM
26 | B26 | 2.2 nM | > 100000 nM
27 | B27 | 1.4 nM | –
